In IntAct's records for PubMed 21785459:

B1: Parkinson disease protein 7 (Homo sapiens), Q99497 (parent)
chain: MASKRALVILAKGAEEMETVIPVDVMRRAGIKVTVAGLAGKDPVQCSRDVVICPDASLEDAKKEGPYDVVVLPGGNLGAQNLSESAAVKEILKEQENRKGLIAAICAGPTALLAHEIGFGSKVTTHPLAKDKMMNGGHYTYSENRVEKDGLILTSRGPGTSFEFALAIVEALNGKEVAAQVKAPLVLKD

Variants of: B1
Conditions: with fadd_human FADD

Variant | effect of a mutation on the interaction
MASKRALVILAKGAEEMETVIPVDVMRRAGIKVTVAGLAGKDPVQCSRDVVICPDASLEDAKKEGPYDVVVLPGGNLGAQNLSESAAVKEILKEQENRKGLIAAICAGPTALLAHEIGFGSKVTTHPLAKDKMMNGGHYTYSENRVEKDGLILTSRGPGTSFEFAAAIVEALNGKEVAAQVKAPLVLKD | decreasing interaction

Variants of: B1
Conditions: with fadd_human FADD
Remark: another data set of the same source

Variant | effect of a mutation on the interaction
MASKRALVILAKGAEEMETVIPVDVMRRAGIKVTVAGLAGKDPVQCSRDVVICPDASLEDAKKEGPYDVVVLPGGNLGAQNLSESAAVKEILKEQENRKGLIAAICAGPTALLAHEIGFGSKVTTHPLAKDKMMNGGHYTYSENRVEKDGLILTSRGPGTSFEFAPAIVEALNGKEVAAQVKAPLVLKD | disrupting interaction
